Biological target: IL-9R/h16445 cytoplasmic-domain receptor chimera (human)
Experiment: cell-based or functional assay

Chain of IL-9R/h16445 cytoplasmic-domain receptor chimera (human) (Q9HBE5 254-538, change not shown): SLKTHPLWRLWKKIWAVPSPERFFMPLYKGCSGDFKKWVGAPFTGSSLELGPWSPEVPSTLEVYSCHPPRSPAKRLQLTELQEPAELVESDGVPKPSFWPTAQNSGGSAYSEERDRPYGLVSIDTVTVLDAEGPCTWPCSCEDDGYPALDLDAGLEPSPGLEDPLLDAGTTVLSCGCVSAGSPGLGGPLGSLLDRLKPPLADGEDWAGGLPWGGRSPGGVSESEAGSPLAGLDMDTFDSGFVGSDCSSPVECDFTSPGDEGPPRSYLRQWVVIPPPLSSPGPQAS

Substance: IL-9 (ligand)
- CAT expression (HRRE-CAT reporter, HepG2 cells): > 30 fold

Reference: patent publication US20020090680A1
